Test results from PMC4848625, “Structural Characterization of Humanized Nanobodies with Neutralizing Activity against the Bordetella pertussis CyaA-Hemolysin: Implications for a Potential Epitope of Toxin-Protective Antigen” (Toxins, 2016).

Target: T1, CyaA-hemolysin (CyaA-Hly), 126-kDa truncated fragment of Bordetella pertussis adenylate cyclase-hemolysin … (Bordetella pertussis, strain not named; …, UniProt P0DKX7)
T1 construct: also called CyaA-Hly toxin; His-tagged CyaA-Hly domain
Experiment: ELISA

T1 sequence (P0DKX7 whole entry, looked up, the tested form may be a part): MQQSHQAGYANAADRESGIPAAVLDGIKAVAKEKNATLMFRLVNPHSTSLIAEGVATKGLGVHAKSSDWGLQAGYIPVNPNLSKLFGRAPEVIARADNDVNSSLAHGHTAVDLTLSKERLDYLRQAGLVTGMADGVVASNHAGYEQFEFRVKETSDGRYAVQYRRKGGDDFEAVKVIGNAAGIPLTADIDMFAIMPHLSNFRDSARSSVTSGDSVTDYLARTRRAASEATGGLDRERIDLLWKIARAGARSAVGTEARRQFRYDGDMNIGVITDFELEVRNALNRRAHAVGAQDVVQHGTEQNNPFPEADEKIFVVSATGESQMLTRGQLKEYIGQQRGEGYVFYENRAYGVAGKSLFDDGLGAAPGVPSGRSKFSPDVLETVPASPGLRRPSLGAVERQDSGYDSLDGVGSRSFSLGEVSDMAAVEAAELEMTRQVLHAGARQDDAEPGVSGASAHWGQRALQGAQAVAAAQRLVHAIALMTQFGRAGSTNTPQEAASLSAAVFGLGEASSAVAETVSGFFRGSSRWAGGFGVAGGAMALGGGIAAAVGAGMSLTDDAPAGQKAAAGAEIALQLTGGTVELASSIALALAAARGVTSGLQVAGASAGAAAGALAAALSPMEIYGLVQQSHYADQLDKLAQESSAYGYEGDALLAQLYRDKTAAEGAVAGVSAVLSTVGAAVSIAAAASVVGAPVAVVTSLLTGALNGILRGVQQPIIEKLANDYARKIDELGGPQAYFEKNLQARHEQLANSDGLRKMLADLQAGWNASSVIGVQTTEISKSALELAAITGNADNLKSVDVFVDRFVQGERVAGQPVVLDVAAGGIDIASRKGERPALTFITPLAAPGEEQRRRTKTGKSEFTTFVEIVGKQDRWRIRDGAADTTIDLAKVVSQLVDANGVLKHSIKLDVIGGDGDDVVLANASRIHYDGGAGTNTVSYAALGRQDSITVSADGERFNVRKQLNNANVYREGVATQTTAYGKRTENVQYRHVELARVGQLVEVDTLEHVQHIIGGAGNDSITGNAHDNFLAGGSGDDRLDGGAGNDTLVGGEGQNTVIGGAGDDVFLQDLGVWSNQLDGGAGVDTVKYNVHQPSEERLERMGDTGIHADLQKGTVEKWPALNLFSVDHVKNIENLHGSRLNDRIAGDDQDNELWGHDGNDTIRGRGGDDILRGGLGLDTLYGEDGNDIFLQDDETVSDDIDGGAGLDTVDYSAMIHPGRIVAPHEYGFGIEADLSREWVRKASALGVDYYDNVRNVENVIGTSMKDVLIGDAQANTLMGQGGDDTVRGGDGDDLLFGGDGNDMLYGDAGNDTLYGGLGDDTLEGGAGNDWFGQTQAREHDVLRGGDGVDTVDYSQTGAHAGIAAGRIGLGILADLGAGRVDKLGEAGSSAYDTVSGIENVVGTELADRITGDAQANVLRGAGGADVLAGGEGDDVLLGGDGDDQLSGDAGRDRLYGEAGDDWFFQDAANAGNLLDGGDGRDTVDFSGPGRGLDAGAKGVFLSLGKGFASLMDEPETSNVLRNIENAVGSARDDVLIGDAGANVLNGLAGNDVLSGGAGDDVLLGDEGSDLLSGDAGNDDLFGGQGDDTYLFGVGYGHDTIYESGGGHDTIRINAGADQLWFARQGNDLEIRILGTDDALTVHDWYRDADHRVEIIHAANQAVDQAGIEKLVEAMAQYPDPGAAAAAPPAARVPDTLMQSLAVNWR

| Binder | binding result (one partner purified) | binding result (both partners purified) |
| --- | --- | --- |
| VHH2, E-tagged (clone no. 2, from the humanized-camel VH/VHH phage-display library) (VHH, source: E. coli HB2151, phagemid pCANTAB5E, IPTG-induced, in lysate; not shown: E tag, C-terminal, kept) VHH: VQLVESGGGSVQAGGSLRLSCTVSGYTDNRYCMGWFRQAPGKEREGVAGINDFGGTTYYVDSVKGRFTISQNNAKNTVYLQMNSLKPEDTAIYYCAIAPRIWGSICSPGTQYNYWGQGTMVTVSS | binds |  |
| VHH2, His-tagged, purified and refolded (VHH, not shown: His6, C-terminal, kept) VHH: VQLVESGGGSVQAGGSLRLSCTVSGYTDNRYCMGWFRQAPGKEREGVAGINDFGGTTYYVDSVKGRFTISQNNAKNTVYLQMNSLKPEDTAIYYCAIAPRIWGSICSPGTQYNYWGQGTMVTVSS |  | binds |
| VHH37, His-tagged, purified and refolded (VHH, not shown: His6, C-terminal, kept) VHH: VQLVESGGGSVQAGGSLRLSCTASGFTFDDFDMGWYHQAPGNECELVSTISNAGHTYYADSVKGRFAISRDNAKNMVYLQMNNLKPEDTAMYYCAAVGALLGFPLVLARPRGGYNYWGQGTMVTVSS |  | binds |
| VHH37, E-tagged (clone no. 37, from the humanized-camel VH/VHH phage-display library) (VHH, source: E. coli HB2151, phagemid pCANTAB5E, IPTG-induced, in lysate; not shown: E tag, C-terminal, kept) VHH: VQLVESGGGSVQAGGSLRLSCTASGFTFDDFDMGWYHQAPGNECELVSTISNAGHTYYADSVKGRFAISRDNAKNMVYLQMNNLKPEDTAMYYCAAVGALLGFPLVLARPRGGYNYWGQGTMVTVSS | binds |  |
